Where a chain is given by its changes, count along the chain named. Blank lines part the entries; values can stand above or below the binder they belong to.
Legend:
[1] = target: T1, human BMP-7 (human, UniProt P18075 293-431); assay: SPR (BIAcore), BMP immobilised on CM4 chip, antibody injected, 37 C
T1 sequence (looked up): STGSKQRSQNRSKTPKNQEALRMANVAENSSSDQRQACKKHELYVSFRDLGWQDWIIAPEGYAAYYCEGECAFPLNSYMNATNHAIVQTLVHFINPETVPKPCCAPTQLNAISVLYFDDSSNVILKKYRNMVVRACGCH

[2] = target: T2, human BMP-5 (human, UniProt P22003 317-454, limits assumed); assay: as above
T2 sequence (looked up): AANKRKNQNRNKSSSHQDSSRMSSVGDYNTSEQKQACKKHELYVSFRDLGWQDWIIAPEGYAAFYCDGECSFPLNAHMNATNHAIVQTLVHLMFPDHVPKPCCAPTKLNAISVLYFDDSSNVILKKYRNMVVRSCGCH

[3] = target: T3, human BMP-6 (human, UniProt P22004 382-513, limits assumed); assay: cell-based or functional assay
T3 sequence: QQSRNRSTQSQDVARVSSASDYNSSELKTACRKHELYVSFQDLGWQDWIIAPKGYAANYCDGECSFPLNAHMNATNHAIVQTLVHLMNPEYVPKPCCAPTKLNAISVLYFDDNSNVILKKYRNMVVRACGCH

[4] = target: T3, human BMP-6; assay: SPR (BIAcore), BMP-6 immobilised on CM4 chip, antibody injected, 37 C
[5] = target: T3, human BMP-6; assay: SPR (BIAcore), ratio of KD against MAB507, 37 C
[6] = target: T3, human BMP-6; assay: cell-based or functional assay; remark: listed apart in the source
[7] = target: T4, rat BMP-6 (rat, UniProt Q04906 368-506, limits assumed); assay: SPR (BIAcore), Fab on rat BMP-6, 37 C
T4 sequence (looked up): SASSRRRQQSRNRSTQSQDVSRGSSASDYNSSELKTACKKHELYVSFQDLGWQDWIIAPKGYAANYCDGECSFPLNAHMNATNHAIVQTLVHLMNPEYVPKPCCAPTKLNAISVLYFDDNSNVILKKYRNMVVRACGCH

[8] = target: T3, human BMP-6; assay: SPR (BIAcore), Fab on human BMP-6, 37 C
[9] = target: T5, Cynomolgus monkey BMP-6 (cynomolgus monkey); assay: SPR (BIAcore), Fab on cynomolgus monkey BMP-6, 37 C
T5 construct: also called Cyno Monkey BMP-6

[10] = target: T3, human BMP-6; assay: SPR (BIAcore), Fab on human BMP-6, 37 C; remark: listed apart in the source

- Geometric Mean IC50 (nM), BMP-6 induced Hep_Luc Assay (hepcidin promoter luciferase, HepProm_Luc cells) [3]: 0.99 nM
- Kd [4]: 0.02 nM
- koff [4]: 4.05e-05 s⁻¹
- kon [4]: 1.73e+06 M⁻¹ s⁻¹
- fold higher affinity than MAB507 [5]: 50 fold
- fold potency against MAB507 in inhibition of BMP-6-induced hepcidin promoter luciferase activity [6]: ~22 fold
B1: Antibody I (antibody, human IgG4 S228P, kappa, F234A L235A, V domains shown)
VH: QVQLVQSGAEVKKPGSSVKVSCKASGYTFTSYAMHWVRQAPGQGLEWMGYINPYNDGTKYNENFKGRVTITADESTSTAYMELSSLRSEDTAVYYCARRPFGNAMDIWGQGTLVTVSS
VL: DIQMTQSPSSLSASVGDRVTITCRSSENIYRNLAWYQQKPGKAPKLLIYAATNLADGVPSRFSGSGSGTDFTLTISSLQPEDFATYYCQGIWGTPLTFGGGTKVEIKR
notes: Engineered antibody with human frameworks and constant regions
- binding result [1]: no binding (tested: up to 1000 nM antibody)
- binding result [2]: no binding (tested: up to 1000 nM antibody)

- Geometric Mean IC50 (nM), BMP-6 induced Hep_Luc Assay (hepcidin promoter luciferase, HepProm_Luc cells) [3]: 0.94 nM
- fold potency against MAB507 in inhibition of BMP-6-induced hepcidin promoter luciferase activity [6]: ~22 fold
B2: Antibody II (antibody, human IgG4 S228P, kappa, F234A L235A, V domains shown)
VH: B1 VH with D56R
VL: B1 VL

- Kd [7]: 0.088 nM
- koff [7]: 0.0003 s⁻¹
- kon [7]: 4.1e+06 M⁻¹ s⁻¹
- Kd [8]: 0.09 nM
- koff [8]: 0.00023 s⁻¹
- kon [8]: 2.5e+06 M⁻¹ s⁻¹
- Kd [9]: 0.0796 nM
- koff [9]: 0.00028 s⁻¹
- kon [9]: 4.1e+06 M⁻¹ s⁻¹
- Kd [10]: 0.0845 nM
- koff [10]: 0.00028 s⁻¹
- kon [10]: 3.7e+06 M⁻¹ s⁻¹
B3: Fab of Antibody I (Fab, V domains shown)
VH: B1 VH
VL: DIQMTQSPSSLSASVGDRVTITCRSSENIYRNLAWYQQKPGKAPKLLIYAATNLADGVPSRFSGSGSGTDFTLTISSLQPEDFATYYCQGIWGTPLTFGGGTKVEIK
notes: These are the variable regions of Antibody I; also called Antibody I Fab

- Kd [8]: 0.08 nM
- koff [8]: 0.00025 s⁻¹
- kon [8]: 3e+06 M⁻¹ s⁻¹
B4: Fab of Antibody II (Fab, V domains shown)
VH: B1 VH with D56R
VL: B3 VL
notes: These are the variable regions of Antibody II; also called Antibody II Fab

Source: patent publication US20140309404A1 (Eli Lilly, published 2014)
